IntAct's records for PubMed 29039417

B1: BBSome complex member BBS5 (Homo sapiens), Q8N3I7 (parent)
chain: MSVLDALWEDRDVRFDLSAQQMKTRPGEVLIDCLDSIEDTKGNNGDRGRLLVTNLRILWHSLALSRVNVSVGYNCILNITTRTANSKLRGQTEALYILTKCNSTRFEFIFTNLVPGSPRLFTSVMAVHRAYETSKMYRDFKLRSALIQNKQLRLLPQEHVYDKINGVWNLSSDQGNLGTFFITNVRIVWHANMNDSFNVSIPYLQIRSIKIRDSKFGLALVIESSQQSGGYVLGFKIDPVEKLQESVKEINSLHKVYSASPIFGVDYEMEEKPQPLEALTVEQIQDDVEIDSDGHTDAFVAYFADGNKQQDREPVFSEELGLAIEKLKDGFTLQGLWEVMS
partner: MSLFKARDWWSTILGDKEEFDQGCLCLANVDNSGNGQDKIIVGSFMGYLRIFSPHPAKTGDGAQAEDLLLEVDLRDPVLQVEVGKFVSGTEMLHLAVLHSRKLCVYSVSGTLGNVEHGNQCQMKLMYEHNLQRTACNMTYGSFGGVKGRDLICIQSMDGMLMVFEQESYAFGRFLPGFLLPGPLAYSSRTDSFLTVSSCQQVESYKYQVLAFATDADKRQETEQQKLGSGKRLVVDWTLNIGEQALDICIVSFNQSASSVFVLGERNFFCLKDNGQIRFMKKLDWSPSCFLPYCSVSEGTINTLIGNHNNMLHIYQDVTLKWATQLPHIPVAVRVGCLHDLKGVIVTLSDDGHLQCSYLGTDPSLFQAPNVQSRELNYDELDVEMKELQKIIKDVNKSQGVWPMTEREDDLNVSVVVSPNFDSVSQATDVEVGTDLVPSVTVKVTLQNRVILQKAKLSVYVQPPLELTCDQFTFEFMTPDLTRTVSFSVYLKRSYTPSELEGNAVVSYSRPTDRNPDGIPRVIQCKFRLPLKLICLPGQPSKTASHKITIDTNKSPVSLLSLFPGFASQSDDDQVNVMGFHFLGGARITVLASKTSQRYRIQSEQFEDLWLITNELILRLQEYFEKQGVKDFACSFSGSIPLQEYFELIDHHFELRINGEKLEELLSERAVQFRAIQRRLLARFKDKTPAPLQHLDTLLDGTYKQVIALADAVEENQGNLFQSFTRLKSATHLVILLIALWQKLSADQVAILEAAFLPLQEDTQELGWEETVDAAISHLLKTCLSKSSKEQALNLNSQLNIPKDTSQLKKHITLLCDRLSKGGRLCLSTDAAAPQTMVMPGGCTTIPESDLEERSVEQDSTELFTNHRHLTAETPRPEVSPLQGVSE

Variants of: B1
Conditions: with pthb1_human BBS9, Q3SYG4

Variant	effect of a mutation on the interaction
Y137K	with no effect
A130K	disrupting interaction strength
A130E	with no effect
Y131K	with no effect
Y131A	with no effect
Y131E	with no effect
S144K	with no effect
S144A	with no effect
S144E	with no effect
V167A	with no effect
V167K	with no effect
V167E	with no effect
L146A	with no effect
L146K	with no effect
L146E	with no effect
S171K	with no effect
S171E	with no effect
S171A	with no effect
Q174A	with no effect
W168A	with no effect
W168K	with no effect
W168E	with no effect
L152A	with no effect
L152K	with no effect

Variant	effect of a mutation on the interaction
L152E	with no effect
L113K	with no effect
L113A	with no effect
L113E	with no effect
T133A	with no effect
T133I	disrupting interaction strength
T133E	with no effect
T133K	with no effect
A126E	with no effect
A126K	with no effect
P115K	with no effect
P115E	with no effect
P115A	with no effect
V127K	with no effect
V127E	with no effect
V127A	with no effect
A145K	with no effect
A145T	disrupting interaction strength
A145E	with no effect
R143E	with no effect
R143A	with no effect
R143K	with no effect
R153A	with no effect
R153K	with no effect

Variant	effect of a mutation on the interaction
R153E	with no effect
K163A	with no effect
K163E	with no effect
V114A	with no effect
V114K	with no effect
V114E	with no effect
L142E	with no effect
L142K	with no effect
L142A	with no effect
D173E	with no effect
D173K	with no effect
D173A	with no effect
L170A	with no effect
L170K	with no effect
L170E	with no effect
K141E	with no effect
K141A	with no effect
T111A	with no effect
T111K	with no effect
T111E	with no effect
Q157A	with no effect
Q157K	with no effect
Q157E	with no effect
S134K	with no effect

Variant	effect of a mutation on the interaction
S134E	with no effect
S134A	with no effect
Q151K	with no effect
Q151E	with no effect
Q151A	with no effect
D162A	with no effect
D162E	with no effect
D162K	with no effect
N165K	with no effect
N165E	with no effect
N165A	with no effect
E158K	with no effect
E158A	with no effect
N112E	with no effect
N112K	with no effect
N112A	with no effect
K150A	with no effect
K150E	with no effect
N149A	with no effect
N149K	with no effect
N149E	with no effect
